The text below walks through data of article PMC406421 (Nuclear Receptor, 2004).

The target in assay [1] is GAL4-DBD/DRIP205 receptor interaction domain fusion protein (human) (UniProt Q15648). Briefly: two-hybrid.
In assay [2] the target is GAL4-DBD/DRIP205 receptor interaction domain fusion protein (human, UniProt Q15648 527-774). Briefly: two-hybrid.
Chain of GAL4-DBD/DRIP205 receptor interaction domain fusion protein (Q15648 527-774): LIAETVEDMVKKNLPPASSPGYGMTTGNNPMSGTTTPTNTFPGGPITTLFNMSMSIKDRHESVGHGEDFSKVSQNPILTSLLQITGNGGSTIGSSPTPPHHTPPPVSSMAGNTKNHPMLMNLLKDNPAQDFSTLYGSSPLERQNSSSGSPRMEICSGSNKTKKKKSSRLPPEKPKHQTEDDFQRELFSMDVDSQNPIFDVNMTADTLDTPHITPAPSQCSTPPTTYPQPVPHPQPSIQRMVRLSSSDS

Chain of GAL4-DBD/DRIP205 receptor interaction domain fusion protein (human) (Q15648 527-774): as above

Consider “VP16-AD/CAR-LBD fusion protein of CAR(SV2) (from UniProt Q14994-2 105-348) (domain or fragment)”, for which the fold induction of the interaction by CITCO over Me2SO (two-hybrid reporter) in assay [1] was 100 fold.

B1: VP16-AD/CAR-LBD fusion protein of reference CAR(SV1) (domain or fragment, human, UniProt Q14994-2 105-348, looked up)
chain: QLSKEQEELIRTLLGAHTRHMGTMFEQFVQFRPPAHLFIHHQPLPTLAPVLPLVTHFADINTFMVLQVIKFTKDLPVFRSLPIEDQISLLKGAAVEICHIVLNTTFCLQTQNFLCGPLRYTIEDGARVGFQVEFLELLFHFHGTLRKLQLQEPEYVLLAAMALFSPDRPGVTQRDEIDQLQEEMALTLQSYIKGQQRRPRDRFLYAKLLGLLAELRSINEAYGYQIQHIQGLSAMMPLLQEICS
For B1, the “fold induction of the interaction by CITCO over Me2SO (two-hybrid reporter)” value in assay [2] was determined as 2 fold.
